Assay results reported in publication PMC3777911 (PLoS ONE, 2013).

Experiments:
[1] = molecular target: T1, HA-Sec13/His-Sec31A complex (outer COPII coat), wild type ( | human, UniProt P55735 1-322; O94979 1-1220); experiment: pull-down; His-tagged Sec31A (Sec13/Sec31A) immobilised on Nickel beads, recombinant ALG-2 versions added, in the presence of Ca2+; eluates on SDS-PAGE, SyproRed; ratios from fluorescence intensity; settings: both partners purified
T1 construct: Sec13, mammalian COPII outer coat protein; human Sec31A; also called Sec13/31A; Sec13/Sec31A (wt); source: co-expressed in ES-SF9 cells (Bac-to-Bac baculovirus), purified (Ni-NTA)

His-Sec31A = molecular target: T2, His-Sec31A (human, UniProt O94979 1-1220); experiment: co-purification (Ni-NTA affinity chromatography); the two chains co-expressed in ES-SF9 cells; complex purified on Ni-NTA through the His tag of Sec31A or Sec24; purified Sec13/Sec31A collected again on Ni beads, SyproRed; settings: partners not purified
T2 construct: human Sec31A; also called wt Sec31A; source: co-expressed with HA-Sec13 in ES-SF9 cells (Bac-to-Bac baculovirus)
T2 sequence (looked up): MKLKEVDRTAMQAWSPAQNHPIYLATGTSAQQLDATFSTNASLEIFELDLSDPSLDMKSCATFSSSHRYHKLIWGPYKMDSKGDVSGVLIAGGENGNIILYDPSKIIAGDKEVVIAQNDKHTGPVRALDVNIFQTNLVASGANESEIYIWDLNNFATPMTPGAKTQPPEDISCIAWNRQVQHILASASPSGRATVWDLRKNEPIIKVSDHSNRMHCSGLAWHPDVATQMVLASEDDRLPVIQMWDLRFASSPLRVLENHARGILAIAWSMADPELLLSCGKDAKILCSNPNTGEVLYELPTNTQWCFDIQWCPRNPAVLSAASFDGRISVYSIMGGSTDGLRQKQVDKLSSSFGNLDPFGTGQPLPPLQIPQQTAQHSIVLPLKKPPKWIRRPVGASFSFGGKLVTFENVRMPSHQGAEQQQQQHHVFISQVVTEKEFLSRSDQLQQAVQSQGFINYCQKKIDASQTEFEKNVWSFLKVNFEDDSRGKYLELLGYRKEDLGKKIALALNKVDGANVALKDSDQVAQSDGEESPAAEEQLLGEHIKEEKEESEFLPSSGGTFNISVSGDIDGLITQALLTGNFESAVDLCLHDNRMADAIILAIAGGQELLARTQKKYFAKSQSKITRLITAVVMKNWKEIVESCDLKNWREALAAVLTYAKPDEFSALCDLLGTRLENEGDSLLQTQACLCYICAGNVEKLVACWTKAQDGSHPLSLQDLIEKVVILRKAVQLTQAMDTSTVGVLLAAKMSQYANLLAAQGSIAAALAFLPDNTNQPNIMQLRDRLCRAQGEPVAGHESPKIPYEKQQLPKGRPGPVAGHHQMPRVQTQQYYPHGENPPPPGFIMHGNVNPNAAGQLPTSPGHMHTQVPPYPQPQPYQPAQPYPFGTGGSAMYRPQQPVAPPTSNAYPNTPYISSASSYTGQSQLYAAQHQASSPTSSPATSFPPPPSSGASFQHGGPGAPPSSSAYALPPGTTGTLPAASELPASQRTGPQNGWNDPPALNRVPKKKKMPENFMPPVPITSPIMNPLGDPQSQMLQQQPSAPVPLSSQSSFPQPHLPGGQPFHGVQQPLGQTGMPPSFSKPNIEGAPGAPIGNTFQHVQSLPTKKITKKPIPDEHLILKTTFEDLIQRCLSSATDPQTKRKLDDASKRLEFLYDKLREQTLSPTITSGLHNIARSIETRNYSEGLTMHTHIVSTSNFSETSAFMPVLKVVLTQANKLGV

| Binder | stoichiometry N [1] | stoichiometry N (His-Sec31A) |
| --- | --- | --- |
| ALG-2 (product of the apoptosis linked gene-2), recombinant wild type (natural protein, UniProt P12815 1-191, looked up, also called wt ALG-2; rALG-2; source: recombinant, purified as previously described [16]) MAAYSYRPGPGGGPGPAAGAALPDQSFLWNVFQRVDKDRSGVISDNELQQALSNGTWTPFNPVTVRSIISMFDRENKAGVNFSEFTGVWKYITDWQNVFRTYDRDNSGMIDKNELKQALSGFGYRLSDQFHDILIRKFDRQGRGQIAFDDFIQGCIVLQRLTDIFRRYDTDQDGWIQVSYEQYLSMVFSIV | ~2 ALG-2 per Sec31A (molar ratio) | – |
| HA-Sec13 (natural protein, UniProt P55735 1-322, looked up, Sec13, mammalian COPII outer coat protein; source: co-expressed with His-Sec31A or His-Sec31ADelABD in ES-SF9 cells (Bac-to-Bac baculovirus)) MVSVINTVDTSHEDMIHDAQMDYYGTRLATCSSDRSVKIFDVRNGGQILIADLRGHEGPVWQVAWAHPMYGNILASCSYDRKVIIWREENGTWEKSHEHAGHDSSVNSVCWAPHDYGLILACGSSDGAISLLTYTGEGQWEVKKINNAHTIGCNAVSWAPAVVPGSLIDHPSGQKPNYIKRFASGGCDNLIKLWKEEEDGQWKEEQKLEAHSDWVRDVAWAPSIGLPTSTIASCSQDGRVFIWTCDDASSNTWSPKLLHKFNDVVWHVSWSITANILAVSGGDNKVTLWKESVDGQWVCISDVNKGQGSVSASVTEGQQNEQ | – | ~1 Sec13 per Sec31A (molar ratio) |
